Sequences and labels used below:
B1: H2-Kb / Ed9 (parent complex)
chain 1: AQSVTQPDARVTVSEGASLQLRCKYSYFGTPYLFWYVQYPRQGLQLLLKYYPGDPVVQGVNGFEAEFSKSNSSFHLRKASVHWSDWAVYFCAVSITGGYKVVFGSGTRLLVSP
chain 2: DSGVVQSPRHIIKEKGGRSVLTCIPISGHSNVVWYQQTLGKELKFLIQHYEKVERDKGFLPSRFSVQQFDDYHSEMNMSALELEDSAMYFCASSPRQSDYTFGSGTRLLVI
chain 3: not shown
chain 4: IQKTPQIQVYSRHPPENGKPNILNCYVTQFHPPHIEIQMLKNGKKIPKVEMSDMSFSKDWSFYILAHTEFTPTETDTYACRVKHDSMAEPKTVYWDRDM
chain 5: SIINFEKL
B2: H2-Kb / B15 (parent complex)
chain 1: QQQVRQSPQSLTVWEGETAILNCSYENSAFDYFPWYQQFPGEGPALLISILSVSDKKEDGRFTIFFNKREKKLSLHIADSQPGDSATYFCAASAASNNRLTLGKGTQVVVLP
chain 2: DSGVVQSPRHIIKEKGGRSVLTCIPISGHSNVVWYQQTLGKELKFLIQHYEKVERDKGFLPSRFSVQQFDDYHSEMNMSALELEDSAMYFCASSRRADAEQFFGPGTRLTVL
chain 3: not shown
chain 4: B1 chain 4
chain 5: SIINFEKL
Also: test concentration or dose not given here.

One assay covers variants of B1. The assay can be described thus: % of reporter cells activated (NFAT-GFP), raw.
chain 5 I3L: the ratio to parent came out at 1.03.

For chain 5 I3H, the ratio to parent was determined as 1.17. As for chain 5 I3F, the ratio to parent was determined as 0.0133. Same read-out and setting: to chain 5 I3S belongs 1.01; to chain 5 I3E, 0.56.

Consider chain 5 I3C, for which the ratio to parent was found to be 0.633. As for chain 5 I3V, the ratio to parent came to 1.12. Same read-out and setting: to chain 5 L8P belongs 0.817; to chain 5 L8C, 0.957; to chain 5 L8H, 1.16. As for chain 5 F5L, the ratio to parent stood at 1.36. With chain 5 F5Q, the ratio to parent stood at 1.33. The same measure, in the same setting: to chain 5 F5M belongs 1.32; to chain 5 F5V, 1.27; to chain 5 F5H, 1.29. With chain 5 N4T, the ratio to parent worked out at 0.127. Still for that read-out and setting: as for chain 5 N4D, the figure is 0.832; as for chain 5 E6D, 0.85.

Consider chain 5 E6M, for which the ratio to parent turned out to be 0.725. The same measure, in the same setting: as for chain 5 E6H, the figure is 0.73; as for chain 5 E6Q, 0.646; as for chain 5 E6W, 0.0935. Still for that read-out and setting: to chain 5 E6C belongs 0.0497; to chain 5 E6S, 0.469; to chain 5 E6N, 0.203. Regarding chain 5 S1C, the ratio to parent stood at 0.147. chain 5 S1A: the ratio to parent is 1.17. On the same count and under the same terms, to chain 5 S1R belongs 0.402; to chain 5 S1F, 0.245; to chain 5 S1L, 0.0324. Regarding chain 5 S1G, the ratio to parent was 0.224. For the variant chain 5 I2N, the ratio to parent came out at 0.905. On the same count and under the same terms, as for chain 5 I2V, the figure is 1.32; as for chain 5 I2M, 1.18; as for chain 5 I2R, 1.12. On the same count and under the same terms, to chain 5 I2D belongs 1.21. Still for that read-out and setting: to chain 5 I2L belongs 1.31; to chain 5 I2H, 0.854. Regarding chain 5 I2Y, the ratio to parent came out at 0.858. Turning to chain 5 I2E, the ratio to parent is 1.11. Take chain 5 I2P: the ratio to parent turned out to be 1. Take chain 5 K7V: the ratio to parent was determined as 0.845. Still for that read-out and setting: to chain 5 K7I belongs 0.919; to chain 5 K7P, 0.525; to chain 5 K7A, 0.47.

In another assay the parent is B2. Nature of the assay: % of reporter cells activated (NFAT-GFP), raw.
As for chain 5 N4D, the ratio to parent turned out to be 0.0675. On the same count and under the same terms, to chain 5 N4A belongs 0.0258; to chain 5 N4Y, 0.151; to chain 5 N4T, 0.01.

As for chain 5 N4C, the ratio to parent was determined as 0.0905. On the same count and under the same terms, to chain 5 N4P belongs 0.00661. Still for that read-out and setting: to chain 5 N4M belongs 0.00683; to chain 5 N4G, 0.184. Same read-out and setting: to chain 5 N4R belongs 0.382. As to chain 5 N4W, the ratio to parent is 0.0638. As to chain 5 N4L, the ratio to parent is 0.391. The same measure, in the same setting: as for chain 5 K7F, the figure is 0.0871; as for chain 5 K7E, 0.0434. Regarding chain 5 K7W, the ratio to parent stood at 0.836. Same read-out and setting: to chain 5 K7M belongs 0.155.

In the case of chain 5 K7L, the ratio to parent was found to be 0.159. Same read-out and setting: as for chain 5 K7G, the figure is 0.457; as for chain 5 K7I, 0.0863; as for chain 5 K7R, 0.928.

For chain 5 K7V, the ratio to parent was found to be 0.454. Regarding chain 5 K7D, the ratio to parent was found to be 0.117. The same measure, in the same setting: to chain 5 K7S belongs 0.774; to chain 5 K7Y, 0.383; to chain 5 K7H, 0.291.

As for chain 5 K7Q, the ratio to parent stood at 0.212. On the same count and under the same terms, as for chain 5 K7T, the figure is 0.124; as for chain 5 F5Y, 0.952; as for chain 5 F5R, 0.96. chain 5 F5Q: the ratio to parent amounted to 0.579. For the variant chain 5 F5N, the ratio to parent came out at 0.673. Still for that read-out and setting: as for chain 5 F5D, the figure is 0.553; as for chain 5 F5E, 0.531; as for chain 5 F5W, 0.981. With chain 5 F5T, the ratio to parent turned out to be 1.03. For the variant chain 5 F5A, the ratio to parent turned out to be 0.953. Same read-out and setting: to chain 5 F5H belongs 0.944.

Consider chain 5 F5V, for which the ratio to parent is 0.999. Still for that read-out and setting: as for chain 5 I2P, the figure is 0.772; as for chain 5 I2G, 0.917. As for chain 5 I2C, the ratio to parent amounted to 0.934. On the same count and under the same terms, to chain 5 I2Q belongs 0.85; to chain 5 I2D, 0.987. On the same count and under the same terms, to chain 5 I2H belongs 0.9; to chain 5 I2L, 1.03; to chain 5 I2Y, 0.764. Still for that read-out and setting: to chain 5 I2R belongs 0.972; to chain 5 I2K, 0.859. Consider chain 5 I2S, for which the ratio to parent came out at 0.959.

For the variant chain 5 I2N, the ratio to parent is 0.974. Consider chain 5 I2V, for which the ratio to parent was found to be 1. Still for that read-out and setting: as for chain 5 I2A, the figure is 0.958. With chain 5 E6R, the ratio to parent came to 0.221.

As to chain 5 E6M, the ratio to parent was found to be 0.324. Regarding chain 5 E6P, the ratio to parent was 0.328.

For chain 5 E6Q, the ratio to parent was 0.41. Consider chain 5 E6C, for which the ratio to parent came out at 0.47. For chain 5 E6G, the ratio to parent was 0.491. Take chain 5 E6A: the ratio to parent came out at 0.205.

As to chain 5 E6T, the ratio to parent was 0.132. In the case of chain 5 E6I, the ratio to parent was found to be 0.00958. Take chain 5 E6W: the ratio to parent turned out to be 0.0482.

For the variant chain 5 E6V, the ratio to parent was determined as 0.0123.

As for chain 5 E6S, the ratio to parent stood at 0.221. Same read-out and setting: as for chain 5 E6F, the figure is 0.13; as for chain 5 E6K, 0.623; as for chain 5 E6Y, 0.15. For chain 5 L8I, the ratio to parent stood at 0.934. For the variant chain 5 L8H, the ratio to parent turned out to be 0.905. Still for that read-out and setting: as for chain 5 L8N, the figure is 0.844. For chain 5 L8F, the ratio to parent was 0.907. On the same count and under the same terms, to chain 5 L8C belongs 0.767. On the same count and under the same terms, to chain 5 L8K belongs 0.801. Consider chain 5 L8D, for which the ratio to parent is 0.692. For chain 5 L8A, the ratio to parent was 0.833. chain 5 L8S: the ratio to parent was 0.802. Take chain 5 L8V: the ratio to parent turned out to be 0.901. Turning to chain 5 L8M, the ratio to parent was 0.955. Regarding chain 5 L8P, the ratio to parent was determined as 0.75. With chain 5 L8T, the ratio to parent was 0.977. With chain 5 L8E, the ratio to parent stood at 0.741. For chain 5 L8W, the ratio to parent turned out to be 0.805.

As for chain 5 L8Y, the ratio to parent worked out at 0.793. Same read-out and setting: as for chain 5 S1L, the figure is 0.456; as for chain 5 S1I, 0.115. The same measure, in the same setting: as for chain 5 S1K, the figure is 0.591; as for chain 5 S1E, 0.759; as for chain 5 S1G, 0.669.

As for chain 5 S1A, the ratio to parent amounted to 0.847.

chain 5 S1V: the ratio to parent turned out to be 0.199. Turning to chain 5 S1C, the ratio to parent is 0.577. The same measure, in the same setting: as for chain 5 S1P, the figure is 0.545. As to chain 5 S1W, the ratio to parent was 0.383. The same measure, in the same setting: to chain 5 I3V belongs 0.798; to chain 5 I3G, 0.362; to chain 5 I3H, 0.491. Turning to chain 5 I3R, the ratio to parent came to 0.339. With chain 5 I3F, the ratio to parent turned out to be 0.0424. Still for that read-out and setting: to chain 5 I3T belongs 0.273. On the same count and under the same terms, as for chain 5 I3W, the figure is 0.479. In the case of chain 5 I3M, the ratio to parent came out at 0.891.

chain 5 I3E: the ratio to parent is 0.599.

Take chain 5 I3K: the ratio to parent turned out to be 0.71. Still for that read-out and setting: to chain 5 I3Y belongs 0.0196. On the same count and under the same terms, to chain 5 I3L belongs 0.812; to chain 5 I3C, 0.607.

The values above are taken from article PMC11480844 (2024).
